Reference: patent publication US12497461B2, “Human NTCP-binding antibody capable of inhibiting infection of hepatitis B virus (HBV) to human hepatocytes” (priority 2019, dated 2025)
Positions count from the first letter of the chain named. Values joined by “and” are separate entries in the source; they are usually repeats but may differ in a detail not shown here. Equal entries are not always repeated.

Columns and labels:
[1] = system: HBV (Genotype C or Genotype D)
[2] = assay type: in vivo, human hepatocyte chimeric mouse (uPA/SCID); details: administration group; highest at HBV inoculation, decreased on and after the first week
Protocol: Preparation of uPA/SCID mice and transplantation of human hepatocytes were carried out in accordance with the report (Tateno C. et al., Am. J. Pathol., 165: 901-912, 2004). To all mice, human hepatocytes taken from the same donor were transplanted. Twenty-three mice, which are obtained by replacing 90% or more of the liver tissue with human hepatocytes by transplantation, were used in the experiment. To these mice, human serum containing 10^3 copies of HBV was administered (inoculated) through the tail vein. One day before and two days after HBV inoculation, 2.0 mg of purified N6HB426-20 antibody was intravenously injected. On Day 7, 14, and 21 after the HBV inoculation, 1.0 mg of the same antibody was intraperitoneally injected. As a control experiment, the same dose of normal mouse IgG antibody (Normal Mouse IgG, Whole Molecule, Purified, FUJIFILM Wako Pure Chemical Corporation) was injected in the same manner. A single mouse died on Day 0 after administration was excluded from the experiment. […]
For quantification of HBV-DNA, 10 μL of mouse serum was used. […] The serum HBV-DNA level was measured by a real-time PCR method using cobas 6800 System (Roche Diagnostics KK, Tokyo, Japan). In this measurement method, the lower limit of quantification was 3.61 log copies/mL. Mouse serum (10 μL) was diluted 30 folds with PBS and bile acid was measured.

[3] = system: HBV; experiment: HBV-infection inhibition in human hepatocyte chimeric mouse, serum HBV-DNA; assay type: in vivo, human hepatocyte chimeric mouse (uPA/SCID); design: key to serum HBV DNA level, One week later / serum HBV DNA level, Two weeks later / serum HBV DNA level, Three weeks later / serum HBV DNA level, Four weeks later / serum HBV DNA level, Five weeks later: “—” indicates values below the limit of detection.; “<3.61” indicates values below the limit of quantitation but a specific signal detected indicating an amplification reaction of HBV
Protocol: Preparation of uPA/SCID mice and transplantation of human hepatocytes were carried out in accordance with the report (Tateno C. et al., Am. J. Pathol., 165: 901-912, 2004). To all mice, human hepatocytes taken from the same donor were transplanted. Twenty-three mice, which are obtained by replacing 90% or more of the liver tissue with human hepatocytes by transplantation, were used in the experiment. To these mice, human serum containing 10^3 copies of HBV was administered (inoculated) through the tail vein. One day before and two days after HBV inoculation, 2.0 mg of purified N6HB426-20 antibody was intravenously injected. On Day 7, 14, and 21 after the HBV inoculation, 1.0 mg of the same antibody was intraperitoneally injected. As a control experiment, the same dose of normal mouse IgG antibody (Normal Mouse IgG, Whole Molecule, Purified, FUJIFILM Wako Pure Chemical Corporation) was injected in the same manner. A single mouse died on Day 0 after administration was excluded from the experiment. Ten mice for each of the groups, in total, 20 mice, were used. After the HBV inoculation, the serum was collected every week. Note that, 3 mice were used for confirmation of infection and not administered with a drug.
For quantification of HBV-DNA, 10 μL of mouse serum was used. Mouse serum was diluted with 690 μL of PBS and DNA was extracted. The serum HBV-DNA level was measured by a real-time PCR method using cobas 6800 System (Roche Diagnostics KK, Tokyo, Japan). In this measurement method, the lower limit of quantification was 3.61 log copies/mL. Mouse serum (10 μL) was diluted 30 folds with PBS and bile acid was measured.

[4] = biological target: T1, human NTCP Y146A mutant (Homo sapiens, UniProt Q14973, Y146A); experiment: Antibody binding to NTCP mutant (epitope mapping); details: FIG. 5A, left
T1 construct: expressed in transfected cells; host or cells: HepG2 or Huh7 cells, lentiviral transduction
T1 sequence (Q14973 1-349 Y146A): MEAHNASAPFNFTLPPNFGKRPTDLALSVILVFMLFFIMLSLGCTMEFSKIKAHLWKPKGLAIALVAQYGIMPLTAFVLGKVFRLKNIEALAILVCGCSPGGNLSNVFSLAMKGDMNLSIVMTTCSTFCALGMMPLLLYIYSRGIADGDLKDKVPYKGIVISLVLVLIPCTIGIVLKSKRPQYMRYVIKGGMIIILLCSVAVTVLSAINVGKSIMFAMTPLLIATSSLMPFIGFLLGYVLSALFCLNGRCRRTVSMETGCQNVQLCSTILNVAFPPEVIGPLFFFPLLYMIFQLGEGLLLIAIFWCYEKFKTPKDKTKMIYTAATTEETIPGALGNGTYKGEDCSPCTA
Protocol: (§1) To establish NTCP expression cells, HepG2 cells or Huh7 cells were infected with a lentiviral vector having a nucleic acid encoding a wild-type NTCP or each of NTCP mutants. Forty-eight hours after infection, the cells were subjected to an immunofluorescence assay or a viral infection assay.
(§2) Huh7 cells expressing a wild-type NTCP or each of the NTCP mutants were fixed with 4% paraformaldehyde, and then, a permeation treatment with 0.3% Triton X-100 was performed. Each of the NTCPs was detected by using N6HB426-20 antibody or HE1-9-10 antibody (dilution ratio: 1:200) and an Alexa Fluor488-conjugate goat anti-mouse IgG antibody (secondary antibody) (Thermo Fisher Scientific) (dilution ratio: 1:1000). Imaging of the cells was carried out by use of a laser scanning confocal microscope using FLUOVIEW fv1000 and IX73 (OLYMPAS).
(§3) In this manner, the relationship with a region important for HBV infection was clarified. Sensitivity to HBV infection, a change in inhibitory activity of the antibody and contribution of a predetermined amino acid residue to FACS analysis were evaluated by alanine scanning method and use of an NTCP mutant transfectant. […] However, both ends of the amino acid residues at positions 276-277 (i.e., amino acid residues at positions 274-275 and 278-279) serve as an epitope involved in HBV infection. […] The phenomenon was further precisely analyzed. […]

[5] = biological target: T2, human NTCP triple mutant (YDD146, 149, and 152AAA) (Homo sapiens, UniProt Q14973, D149A/D152A/Y146A); experiment: Antibody binding to NTCP mutant (epitope mapping); details: FIG. 5B
T2 construct: expressed in transfected cells; host or cells: HepG2 or Huh7 cells, lentiviral transduction
T2 sequence (Q14973 1-349 Y146A/D149A/D152A): T1 sequence (Q14973 1-349 Y146A) with D149A, D152A
Protocol: as §1, §2, §3

B1: N6HB426-20 antibody: anti-human NTCP monoclonal antibody from a sub-clone of N6HB426 hybridoma; VH SEQ ID NO: 3, VL SEQ ID NO: 4 (antibody, V domains shown)
VH: QVQLQQSGAELVKPGASVKLSCKASDFTFTEYTIHWIKQMSGQGLEWIGWFYPGSGDIKYSEKFKDKATLTADKSSSTVYMELNRLTSEDSAVYFCARHMRDFRGFYYGRFYFDYWGQGTTLTVSS
VL: EIVLTQSPAIMSASPGEKVTITCRASSSVSSSYLHWYQQKSGVSPKLWIYSTSNLASGVPARFSGSGSGTSYSLTINSVEAEDAATYYCQQYSGYRWTFGGGTTLEIKRA
modifications: N6HB426 antibody heavy chain variable region; N6HB426 antiibody light chain variable region
[1]
  inhibitory activity on infection of normal human hepatocytes with HBV: comparable to preS1
[2]
  bile acid level in the sera: transient increase
[3]; all of the 10 mice of the group
  serum HBV-DNA in the 4th week after HBV inoculation: not detected
[3]; test group, individual mice, five weeks after HBV inoculation
  serum HBV DNA level, Five weeks later: — (8×) and <3.61 log copies/mL
[3]; test group, individual mice, four weeks after HBV inoculation
  serum HBV DNA level, Four weeks later: —
[3]; test group, individual mice, one week after HBV inoculation
  serum HBV DNA level, One week later: —
[3]; test group, individual mice, three weeks after HBV inoculation
  serum HBV DNA level, Three weeks later: —
[3]; test group, individual mice, two weeks after HBV inoculation
  serum HBV DNA level, Two weeks later: —
[4]
  binding to single mutant Y146A: significantly low binding
[5]
  binding to triple mutant (YDD146, 149, and 152AAA): weak binding
